According to patent US20080026996A1, “Selective Vpac2 Receptor Reptide Agonists” (ELI LILLY AND COMPANY, priority 2004, published 2008):
Where no end group is shown, it is not given here. [ ]: non-standard residue; d: D form. The star is where a group is joined. hArg = N=C(N)NCCCC[C@H](N)C(=O)O; Nle = CCCC[C@H](N)C(=O)O; Orn = NCCC[C@H](N)C(=O)O; Hexanoyl = CCCCCC(=O)*; Aib = CC(C)(N)C(=O)O

Experiments:
rat VPAC2 receptor [1] = molecular target: T1, rat VPAC2 receptor (Rattus norvegicus, UniProt P35000); assay: DiscoveRx in vitro potency, CHO-PO cells transiently transfected with rat VPAC 2 receptor DNA; assay type: cell-based; design: expressed in transfected cells; host or cells: CHO-PO, transient
T1 sequence (P35000 23-437): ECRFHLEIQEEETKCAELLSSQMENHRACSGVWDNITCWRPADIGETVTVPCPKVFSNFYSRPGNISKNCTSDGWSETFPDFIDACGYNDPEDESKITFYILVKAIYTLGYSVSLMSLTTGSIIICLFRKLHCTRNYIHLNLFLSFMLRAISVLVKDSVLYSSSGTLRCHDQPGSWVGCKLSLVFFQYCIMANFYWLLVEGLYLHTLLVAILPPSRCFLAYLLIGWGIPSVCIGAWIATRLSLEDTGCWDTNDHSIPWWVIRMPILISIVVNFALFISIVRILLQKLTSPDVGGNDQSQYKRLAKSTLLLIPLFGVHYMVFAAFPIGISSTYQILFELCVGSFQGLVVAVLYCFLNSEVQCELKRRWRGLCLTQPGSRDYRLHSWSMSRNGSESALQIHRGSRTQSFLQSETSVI
Method: Also, the cells are washed twice. […] The stimuli are present for 30 minutes. Then, the assay buffer is gently removed.

human VPAC1 = molecular target: T2, human VPAC1 (Homo sapiens, UniProt P32241); assay: Filter binding assay, membranes of cells transiently transfected with human VPAC1, 125I-labeled VIP tracer (Table 2); design: expressed in transfected cells; conditions: read-out: Human VPAC1 Receptor Binding
T2 sequence (P32241 31-457): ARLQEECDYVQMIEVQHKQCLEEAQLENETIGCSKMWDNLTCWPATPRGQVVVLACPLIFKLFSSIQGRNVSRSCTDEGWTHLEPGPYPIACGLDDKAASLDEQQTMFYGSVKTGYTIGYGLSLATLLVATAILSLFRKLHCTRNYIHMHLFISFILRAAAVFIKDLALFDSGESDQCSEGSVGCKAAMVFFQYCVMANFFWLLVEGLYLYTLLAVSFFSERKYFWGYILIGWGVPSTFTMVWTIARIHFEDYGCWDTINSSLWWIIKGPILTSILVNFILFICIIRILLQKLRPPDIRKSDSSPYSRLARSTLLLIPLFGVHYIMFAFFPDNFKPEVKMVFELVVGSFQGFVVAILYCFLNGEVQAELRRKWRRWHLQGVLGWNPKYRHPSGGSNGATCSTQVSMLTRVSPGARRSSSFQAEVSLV
Procedure, shortened: (§1)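 Scintillation counting of filter-retained radioligand gave the read-out. Compounds competed with the labelled tracer (about 40000 cpm) for 2.5 μg membranes during 1 hour of shaking in HEPES pH 7.4 buffer containing 0.5% BSA.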

human VPAC2 [2] = molecular target: T3, human VPAC2 (Homo sapiens, UniProt P41587); assay: Alpha screen cAMP in vitro potency, human VPAC2 receptor; assay type: cell-based; conditions: cAMP generation; single result from two analyses performed in a single run; read-out: Human VPAC2 Receptor: Alpha Screen EC50
T3 construct: expressed in transfected cells
T3 sequence (P41587 24-438): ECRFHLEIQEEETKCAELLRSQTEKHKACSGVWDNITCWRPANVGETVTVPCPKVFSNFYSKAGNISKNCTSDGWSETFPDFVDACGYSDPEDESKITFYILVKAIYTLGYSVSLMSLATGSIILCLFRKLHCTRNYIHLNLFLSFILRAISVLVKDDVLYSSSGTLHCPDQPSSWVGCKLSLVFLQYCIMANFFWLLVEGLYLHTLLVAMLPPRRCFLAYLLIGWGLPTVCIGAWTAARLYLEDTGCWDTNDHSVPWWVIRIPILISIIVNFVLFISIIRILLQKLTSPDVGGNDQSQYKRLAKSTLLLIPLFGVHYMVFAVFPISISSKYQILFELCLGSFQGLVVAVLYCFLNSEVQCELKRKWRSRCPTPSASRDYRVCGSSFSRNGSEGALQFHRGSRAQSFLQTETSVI
Procedure, shortened: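 Stimulated cAMP accumulation is read by AlphaScreen after 60 min exposure of 50,000 non-enzymatically harvested cells to compound, followed by lysis with donor beads.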

human VPAC2 [3] = molecular target: T3, human VPAC2; assay: Filter binding assay, membranes of stable VPAC2 cell line, 125I-labeled VIP tracer (Table 2); conditions: read-out: Human VPAC2 Receptor Binding
Procedure, shortened: as §1

[4] = Rat serum stability studies (remaining active peptide by DiscoveRx cAMP on CHO-VPAC2 cells); assay type: in vitro ADME
Procedure, shortened: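 Rat serum, 18 h: +aprotinin aliquot at 4° C, no-aprotinin aliquot at 37° C. Then 30 min RT step, supernatant removed, 1 h shaking at 300 rpm. DiscoveRx cAMP kit on CHO-VPAC2; EC50 from cAMP data vs standards.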

human VPAC2 receptor = molecular target: T4, human VPAC2 receptor (human, UniProt P41587 24-438); assay: cell-based or functional assay
T4 sequence (looked up): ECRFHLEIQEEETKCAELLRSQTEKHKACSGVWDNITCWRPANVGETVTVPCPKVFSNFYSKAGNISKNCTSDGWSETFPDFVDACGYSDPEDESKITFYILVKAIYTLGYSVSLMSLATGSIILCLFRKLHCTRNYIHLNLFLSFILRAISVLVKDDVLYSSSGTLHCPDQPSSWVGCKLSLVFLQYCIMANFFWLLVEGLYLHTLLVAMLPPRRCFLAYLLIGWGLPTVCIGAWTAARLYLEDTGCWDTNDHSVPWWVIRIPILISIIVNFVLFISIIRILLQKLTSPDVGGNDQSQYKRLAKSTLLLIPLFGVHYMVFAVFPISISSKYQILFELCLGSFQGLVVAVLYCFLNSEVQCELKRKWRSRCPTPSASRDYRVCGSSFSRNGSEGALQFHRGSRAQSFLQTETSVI

rat VPAC2 receptor [5] = molecular target: T5, rat VPAC2 receptor (rat, UniProt P35000 23-437); assay: cell-based or functional assay
T5 sequence (looked up): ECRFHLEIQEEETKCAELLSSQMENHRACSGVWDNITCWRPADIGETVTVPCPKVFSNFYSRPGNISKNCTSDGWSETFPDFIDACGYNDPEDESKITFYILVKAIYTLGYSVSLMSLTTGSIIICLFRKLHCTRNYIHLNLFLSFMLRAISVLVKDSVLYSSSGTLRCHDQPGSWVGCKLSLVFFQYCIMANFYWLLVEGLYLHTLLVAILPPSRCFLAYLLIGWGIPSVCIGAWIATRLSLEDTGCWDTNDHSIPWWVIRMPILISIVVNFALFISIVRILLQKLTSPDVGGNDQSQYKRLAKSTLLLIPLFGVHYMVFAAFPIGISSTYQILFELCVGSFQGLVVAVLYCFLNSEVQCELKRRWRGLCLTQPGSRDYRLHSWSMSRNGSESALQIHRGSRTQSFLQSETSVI

rat VPAC1 receptor = molecular target: T6, rat VPAC1 receptor (rat, UniProt P30083 31-459); assay: cell-based or functional assay
T6 sequence (looked up): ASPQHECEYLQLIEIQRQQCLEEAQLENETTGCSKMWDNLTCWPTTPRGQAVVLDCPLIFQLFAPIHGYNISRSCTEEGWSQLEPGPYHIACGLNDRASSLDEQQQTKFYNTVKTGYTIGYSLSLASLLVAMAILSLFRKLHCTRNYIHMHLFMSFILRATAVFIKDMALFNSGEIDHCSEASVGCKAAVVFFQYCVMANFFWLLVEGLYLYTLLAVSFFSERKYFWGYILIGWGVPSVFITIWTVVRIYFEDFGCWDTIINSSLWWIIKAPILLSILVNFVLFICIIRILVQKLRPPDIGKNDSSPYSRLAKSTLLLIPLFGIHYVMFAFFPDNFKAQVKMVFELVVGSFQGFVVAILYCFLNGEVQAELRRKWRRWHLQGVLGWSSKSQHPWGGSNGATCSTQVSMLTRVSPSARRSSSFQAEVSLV

Hexanoyl-HSDAVFTDNYTRLR[Aib]QKAA[Aib]KYLQSIKNKRYGGPSSGAPPPS [Agonist P323]
EC50 (rat VPAC2 receptor [1]): 0.07 nM | IC50 (human VPAC1): > 3000 nM | EC50 (human VPAC2 [2]): 0.23 nM | IC50 (human VPAC2 [3]): 0.32 nM | Rat Serum Stability (estimated purity in % after 18 hours) [4]: 16.81%

Hexanoyl-HSDAVFTDNYTR[Aib]R[Aib]QVAA[Aib]KYLQSIKNKRYGGPSSGAPPPS [Agonist P346]
EC50 (rat VPAC2 receptor [1]): 0.06 nM | IC50 (human VPAC1): > 3000 nM | EC50 (human VPAC2 [2]): 0.23 nM | IC50 (human VPAC2 [3]): 0.25 nM | Rat Serum Stability (Estimated purity in % after 72 hours) [4]: 27.6% | Rat Serum Stability (estimated purity in % after 18 hours) [4]: 43.44%

Hexanoyl-HSDAVFTDNYTRLR[Aib]KVAA[Aib]KYLQSIKNKRYGGPSSGAPPPS [Agonist P321]
EC50 (rat VPAC2 receptor [1]): 0.04 nM | IC50 (human VPAC1): 429 nM | EC50 (human VPAC2 [2]): 0.38 nM | IC50 (human VPAC2 [3]): 0.29 nM

HSDAVFTDNYTXLRXQVAAXKYLQSIXNXGGPSSGAPPPS (N-terminal hexanoyl (C6); Orn at 12, 27, 29; Aib at 15, 20) [P326]
EC50 cAMP, Alpha Screen (human VPAC2 receptor): 0.21 nM | EC50 cAMP, DiscoveRx (rat VPAC2 receptor [5]): 0.09 nM | EC50 cAMP, DiscoveRx (rat VPAC1 receptor): 4.53 nM

Hexanoyl-HSDAVFTDNYTRLR[Aib]Q[Nle]AA[Aib]KYLQSIKNKRYGGPSSGAPPPS (ends and bridges not checked) [P325]
EC50 cAMP, Alpha Screen (human VPAC2 receptor): 0.24 nM | EC50 cAMP, DiscoveRx (rat VPAC2 receptor [5]): 0.04 nM | EC50 cAMP, DiscoveRx (rat VPAC1 receptor): 1.46 nM

Hexanoyl-HSDAVFTDNYTRL[hArg]KQVAAKKYLQSIKNKRYGGPSSGAPPPS (ends and bridges not checked) [P305]
EC50 cAMP, Alpha Screen (human VPAC2 receptor): 0.17 nM | EC50 cAMP, DiscoveRx (rat VPAC2 receptor [5]): 0.04 nM | EC50 cAMP, DiscoveRx (rat VPAC1 receptor): 3.71 nM

HSDAVFTDNYTRLRXQVAAXKYLQSIXXGGPSSGAPPPS (N-terminal hexanoyl (C6); Aib at 15, 20; Orn at 27, 28) [P352]
EC50 cAMP, Alpha Screen (human VPAC2 receptor): 0.14 nM | EC50 cAMP, DiscoveRx (rat VPAC2 receptor [5]): 0.09 nM | EC50 cAMP, DiscoveRx (rat VPAC1 receptor): 4.35 nM

HSDAVFTDNYTXLRXQVAAXKYLQSIXNXXYGGPSSGAPPPS (N-terminal hexanoyl (C6); hR at 12, 27, 29, 30; Aib at 15, 20) [P338]
EC50 cAMP, Alpha Screen (human VPAC2 receptor): 0.46 nM | EC50 cAMP, DiscoveRx (rat VPAC2 receptor [5]): 0.07 nM | EC50 cAMP, DiscoveRx (rat VPAC1 receptor): 5.16 nM

Hexanoyl-HSDAVFTDNYTRL[hArg][Orn]QVAAKKYLQSIKNKRYGGPSSGAPPPS (ends and bridges not checked) [P308]
EC50 cAMP, Alpha Screen (human VPAC2 receptor): 0.26 nM | EC50 cAMP, DiscoveRx (rat VPAC2 receptor [5]): 0.09 nM | EC50 cAMP, DiscoveRx (rat VPAC1 receptor): 9.74 nM
